Assay results from the DeepSol protein solubility set.

Test: soluble on expression in E. coli; label from the status in PepcDB or PDB records

| Sequence | soluble on expression in E. coli |
| --- | --- |
| MLGRRAVSVHRFLSRAARQSVTAASSAQPSLQAKTSLLEPLVQNVRITSSANFHMSAVRMSDVITVEGPAFAESISEGDIRWLKQKGDHVNEDELVAEIETDKTSVEVPAPQAGTIVEFLVEDGAKVTAKQKLYKLQPGAGGGSSSAPAKEEPKSAPAKEESKPAPAKEDSKPAVTAAAPPKPVSGDIPKSAPPVARPPSTPSSSTPVGAVPVTRVVVPKGVDPSHAITGARDEVRVKANRMRMRIAQRLKDAQNTYAMLTTFNEIDMSSLIEMRKTYQKDFVAKHGVKLGMMSPFVRAAAYALQESPVVNAVLDENEIVYRHFVDISVAVATPKGLVVPVLRNVESMNYAQIELELANLGVKARDGKLAVEDMEGGTFTISNGGVFGSMFGTPIINPPQSAILGMHGVFDRVVPVNGKPEIRPIMQIALTYDHRLIDGREAVTFLKKIKTAVEDPRIMFMNL | not soluble |
| MSRQDPRTIEFLESVGKGEIPPSLVQQYPGKEIDFKVNRHHEEYVAPKMKPFGGSGVRLGNVVPTVLGQSSSSATTAGTSSATTDHNPDHTAENEAKQLEDAKKELSTNMNEPTTNIQIRLPNNQRLVGIFNHSHTLEAVRTFICTARPDMIYAPFQMMAAYPPKPFEDESQTLKDANVLNSVVAVKILPTTN | not soluble |
| MKTADELAKLRRASELITDSMLATIAAARAGSTKLEIIEQLRREETNRGLHFEYCLLTLGASHNRAGSPQAWAEGEILSIDSGGNYHGYIGDLCRMGVLGEPDAELEDLLAEVERIQQAAFAKVRAGVLGSEMIVAAEAELKASPSAAFTDFFCHGMGLITHEAPFLMTNHPVAYEGIDADKPLEAGNVISVETTMLHPKRGFIKLEDTLAITDKGYEMFGDRGRGLEHHHHHH | soluble |
| MGSDKIHHHHHHMETIHFTKVHGSQNDFFLVDEEENHITEWSDEKRANFAIKLCDRKHSLGGADGILYVTKSSEVGPIGQMRVVNSDGSIASMCGNGLRTVARYLLEKHALTDAKVETMKAILDVKKATSLGFDIPTYQVEISPVKFAAETLPMHVGVEKLFNQVIPELDAELAFSAVSVPNPHLITFVDQAVLDSNKQEKLASYLNSENPYFPDGVNVSFVKRLSDDAIYVRTFERGVGFTNACGTAMSACSLIKKMLDNNILETPLNVYNDGGRVQVTAKKDAAGEISLQLIGNATFVSKGSVRYENDIVTELTNEATAEQAQYQALVKEVKEFLKTTE | not soluble |
| MGSDKIHHHHHHMYIFRSIHEIINTIFVAKGLLVEMFEKRKVLSFRYSDALALLKEDENRLKILIEKEIIHQNGNFVELDARFLDFFELLLEANEEINTATVEENIEYLHELMDYYLKEKIQSRKESYVRNIKITFQKLARVTIRNIINLQHNIDNAFKHEPTYQIKIAKLQNLDKKRINIQRLIDSTEHLILHEERDFFRQATDEELTRILLELRQELQLSAHSLIRAQQDIINYLNQIKNQVILVEKIRKVKYLQDQFELRARSNLSEIMERERSLLLEGNTQASFKLSPSYLASDEVRPIILKVISNQKYREIVRKNEAGAFSEEDLEAQAMYEEVINLDEVVTAFVQSGAEARWKGEPVSDLFSFLLQYHFHREVDEKERTTFFCQIVSLYESQLEIRNEFGLHNQYEYAKIYPL | not soluble |
| MMTKTQINKLIKMMNDLDYPFEAPLKESFIESIIQIEFNSNSTNCLEKLCNEVSILFKNQPDYLTFLRAMDGFEVNGLRLFSLSIPEPSVKNLFAVNEFYRNNDDFINPDLQERLVIGDYSISIFTYDIKGDAANLLILEHHHHHH | not soluble |
| AVANATELVNKISENCFEKCLTSPYATRNDACIDQCLAKYMRSWNVISKAYISRIQNASASGEI | soluble |
| MGSDKIHHHHHHMLKSCPMNPRLDALHPYPFEKLRALLADAGKPTHDLPPINLSIGEPKHAAPACVGQAIAANLAGLSVYPSTKGEPALRQAISQWLSRRYSIPAPDPESEVLPVLGSREALFAFAQTVIDPSAGALVVCPNPFYQIYEGAALLAGATPYYVNADPARDFGCDWARVPDEVWRRTQLVFVCSPGNPAGNVMSLEEWRTLFELSDRHGFVIAADECYSEIYLDEDNPPLGSLQAARRLGRDRYTNLVAFSSLSKRSNVPGMRSGFVAGDAALLARFLLYRTYHGSAMSPVVSAASIAAWSDETHVQENRRQYRAKFEAVLPILQNVLDVRAPQASFYLWAGTPGSDTAFARELYGRTGVTVLPGSLLAREAHNANPGQGRIRIALVAPLDQCVQAAERIAHFARTSI | not soluble |
| WTVNPYRGCTHACVYCFARKTHSYLDLDTGLGFDSQIVVKINAPDLLRRQLASRRWHGEHVAMGTNVDCYQRAEGRYQLMPGIIAALRDHANPFSILTKGTLILRDLDLLEQAAEVTDVGISVSVGFTDHELWRTVEPGTPAPERRLDVVRTLSEHGIGCGVLMAPVIPFLSDQPAQLRATVRAIAAAGATSVTPLVLHLRPGAREWFMAWLEHHHPYLVRRYERLYAEGAYAPKWYQRRITRQVHELAQEYGIGPTRAGMPRRIPEPEPETPPTPEPTQLTLL | not soluble |
| DDAAIKRKLQSFNISNIVIKSSPISGIKTAVTDQGILYVSEDGKYLFEGKLYELTNNGPVDVAGKILVDKLNSYKDEMIVYPAKNEKHVVTVFMDITCHYCHLLHQQLKEYNDLGITVRYLAFPRAGMNNQTAKQMEAIWTAKDPVFALNEAEKGNLPKEVKTPNIVKKHYELGIQFGVRGTPSIVTSTGELIGGYLKPADLLRALEETAQ | soluble |
| SSCTIEKILTDAKTLLERLREHDAAAESLVDQSAALHRRVAAMREAGTALPDQYQEDASDMKDMSKYKPHILLSQENTQIRDLQQENRELWISLEEHQDALELIMSKYRKQMLQLMVAKKAVDAEPVLKAHQSHSAEIESQIDRICEMGEVMRKAVQVDDDQFCKIQEKLAQLELENKELRELLSISSESLQARKENSMDTASQAIK | soluble |
| MGSDKIHHHHHHMDFRQFEYVKTIAEEKSISRAAERLYISQPSLSQYIIRLENSLGVKLFDRTSATITLTFAGEKYIETARNIINLNNQLTKELNDIANLSKGRVIIGVPSQAGRYILPLVIPKFYKEYPNIEIIVEENIVSELEKMLLEGKIDIAILTLPVQHEKITYESIMNERIFLIAPKKHPICSVDGRISFNFIRNEKFILLKKGQRIRLIVDDIFSRIGAKPNIILEITNLDAAYRMASSGMGFTIVPENVLYLLNTNGKENDFIIDSLEHTLVVAYRKGEYLTRASREFIANLKGVMKMDYNNKNHNSVSYKKIYID | not soluble |
| MFLAGAFIAVGSLYAQSSDAEWQAGVAKLKETIQTNPAQANEEAEQLIKGKNKKNVELLVAIGEVYLKAGKLPEAQEYAALAKKVNGKSALASVLEGDIAFEQKNAGLASQKYEEAIYFDPSCTEAYLRYADIYKSANAALAIEKLEQLKAQEPSNTAVDKKLAEIYYLKNDFSKAAEAYSRFAMGPTATEEDLVKYAFALFLNHDFEKSLEVANMGLKKNARHAAFNRLAMYNYTDLKRFDEAIKAADAFFTESDKADYSYLDYMYYGHLLEALKKYDEAVGQYEKAIQLDPTKTDLYKNISSAYEQKNDYKKAISAYQKYYTSLDKLEHHHHHH | soluble |
| YRATKLWNEVTTSFRAGMPLRKHRQHFKKYGNCFTAGEAVDWLYDLLRNNSNFGPEVTRQQTIQLLRKFLKNHVIEDIKGRWGSENVDDNNQLFRFPA | soluble |
| MAHHHHHHMDQSRHKRTARHQYLGARTKITLKLQLTRIQHRGFHVHVHSRTTPLDRQAHEDALQQRDVECLLWRVKMQQIQQNRSGEGHVDKAQTTHTGIRIVHGADPATVNAAGLRVLRIGERERPKTVRNRSWQTRVTVAASSTHALTAADAARPRSEAHGVHSARATVQHRHGRPNIEVDSVIRHRRAS | not soluble |
| MGSDKIHHHHHHMIPEDVLAFFDLKQGRRPKAILNVLVGKMTVSALFWGLEYDILEYLNFWKTIDTTSFLENVDRAVEGGFLAKKDELIYLTEAGQQKQFSCTTPTPFIKKVRLDEAIDLLLLANQVISEFSFKNNRYIPVSDNLRINVILKNWFKQLKSRNHHTTDIVQKYTQGLDELLSQLQQHDADILLSYLPNHVDPGWTIDQLAQAFGISKFQMELKIRLIFSKIISDAVLTKIAPFVDLLNSTIKENVMPDSTYQTWQLIRQGKTVDEVARLKHVKTNTVKEHILMAAILDSNFPFDKFVRFNFEIGKHPTEVDFRSIQSQIADITFFDFRLIQIRKIKEQQNNNGNR | not soluble |
| MSKDDPINSIFFEHQEAALCAQHALNMLLQDALYKWQDLRDLAIQMDKMEQQILGNANPTPGRSENMNESGYFSIQVLEKALETFSLKLTNIENPAMVDYKNNPLTARAYICNLREHWFVLRKFGNQWFELNSVNRGPKLLSDTYVSMFLHQVSSEGYSIFVVQGVLPRSDADDLISLCPVVPPKVTPKKEQKLEKVMTKFFNTVGKRLGGGSGAPPDSQEEKDLAIAFAMSMETKDGSEVSRSSAEIDEENLRKAIELSQAPGPSEPAEIPLLTRSRSSTPPGASEPFSNAEQQRRDRQKFLERFEKKKEERNDEK | not soluble |
| MSDPRPVVARCEGMFPADLARYEAQRTRKGGDLGHIDASRSHLNRPLLGEADWAKQAMAEIEAMRAENYADELEALQRRGRKKEIQKRMVEGPKDPWRASRHGPLREIILTAHKDWFNEIVFDGNRMDFAARERAFEDRAVAWLQQTFGDDIVHARADLDETTYHIHAVLVPRAVVKVNGATRRMLQPSIHPLIEDYEKLQDSVGAWFSAIGLARGEKRAEAIREAAAKGDPIPKKRHHCRPSDWRRRQEAEVIRQRAEVEAREAATAETAAALDARRADLAHHEERLAAEDARLSAVAATRRAEAGRLDHRVEAVVARETVADERMAEADAVLAVAEGPGAGAFDIDDAGGTPMLTERPENPSLLARLKRPVAGSDRGRARAVAALGAAWTRLRKAAGEAAEARLAREHEDLRKADEALLEVARTLPETARERIARARPTIARSLTGIGLTLRRLRGRDGGAQRDESGTGEKLEHHHHHH | soluble |
| TIKNFTFFSPNSTEFPVGSNNDGKLYMMLTGMDYRTIRRKDWSSPLNTALNVQYTNTSIIAGGRYFELLNETVALKGDSVNYIHANIDLTQTANPVSLSAETANNSNGVDINNGSGVLKVCFDIVTTSGTGVTSTKPIVQTSTLDSISVNDMTVSGSIDVPVQTLTVEAGNGLQLQLTKKNNDLVIVRFFGSVSNIQKGWNMSGTWVDRPFRPAAVQSLVGHFAGRDTSFHIDINPNGSITWWGANIDKTPIATRGNGSYFIKSAW | soluble |
| MMTSNSYWQRLKVAFQYVMPQIYLTQIAGWFAKQKWGKITHFVIKAFAKKYNIDMSIAQKEQFSDYASFNEFFIRPLKENARPINQNPTALCLPADGRISECGHIDDNLLLQAKGHFFSLEDLLAEDKELVETFKNGEFVTTYLSPRDYHRVHMPCDATLRKMIYVPGDLFSVNPFLAQHVPNLFARNERVICVFDTEFGTMVQILVGATITASIGTTWAGVINPPRHNEVKTWTYEGESAVKLLKGQEMGWFQLGSTVINLFQANQVRLADHLSVNEPVRMGEILAYKKLEHHHHHH | not soluble |
| GKPIRSPGVLLDIDSRRTAEAERDRLNELLQIFTAAVPGVVYAKDLEGRMLVANRGTAELVGKPPEFFIGKTDLEFLDDEQQARVLMETDQRIMQSNVSEQIEEKVNLADGSAAIWLSTKAPLLDRN | not soluble |
| MRVFVVGGTGFVGQEVVRLLLARGHTPLVLARRSRPLPEGAVLVEGDIAREVPDLEGVEAAIYLAGIIRERGQTFRAVHVEGVRNLLRAMERAGVGRLLHMSALGARPEAPSRYHRTKAEGEALVRQSGLSHAIFRPSLIFGPGDEFFGRVLRGLVCAPLPFVPLIGDGGFPFRPVYVGDVAEAFVGALERGLEGTYDLVGPKEYSFRELLQLVMEVLGRRKPFLSLPLWLMDRLVPLLSPLPISPLTLDQYLMLKEGNTAPFPEALKELLPAPQALEEVLPRYLRC | soluble |
| GEEEKKRTARTDYWLQPEIIVKIITKKLGEKYHKKKAIVKEVIDKYTAVVKMIDSGDKLKLDQTHLETVIPAPGKRILVLNGGYRGNEGTLESINEKTFSATIVIETGPLKGRRVEGIQYEDISKLA | soluble |
